From PMC7840129, “Structural basis for heme-dependent NCoR binding to the transcriptional repressor REV-ERBβ” (Science Advances, 2021)
Positions count from the first letter of the chain named.

T1: mouse NCoR receptor interaction domain (residues 1942 to 2208 in the X50 splice variant), wild type (mouse)
T1 chain: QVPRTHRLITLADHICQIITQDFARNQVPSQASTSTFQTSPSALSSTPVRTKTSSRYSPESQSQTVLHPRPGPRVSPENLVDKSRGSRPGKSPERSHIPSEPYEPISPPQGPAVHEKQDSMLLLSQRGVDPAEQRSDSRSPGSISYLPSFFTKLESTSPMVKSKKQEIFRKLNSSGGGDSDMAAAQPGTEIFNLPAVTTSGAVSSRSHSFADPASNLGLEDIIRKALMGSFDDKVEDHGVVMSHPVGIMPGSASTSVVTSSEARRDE

T2: NCoR ID1 peptide (not fully specified; N-terminal amidation and C-terminal acetylation (so in the source))
T2 construct: source: synthetic peptide, bought: LifeTein
T2 peptide: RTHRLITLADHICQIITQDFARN

T3: NCoR ID2 peptide (not fully specified; N-terminal amidation and C-terminal acetylation (so in the source))
T3 construct: source: synthetic peptide, bought: LifeTein
T3 peptide: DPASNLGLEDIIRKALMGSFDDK

T4: mouse NCoR RID ΔID2 mutant (mouse)
T4 chain: T1 chain with L219T, I222T, I223T

B1: human REV-ERBβ ligand-binding domain (residues 381 to 579) (domain or fragment, UniProt Q14995 381-579, looked up)
chain: HLVCPMSKSPYVDPHKSGHEIWEEFSMSFTPAVKEVVEFAKRIPGFRDLSQHDQVNLLKAGTFEVLMVRFASLFDAKERTVTFLSGKKYSVDDLHSMGAGDLLNSMFEFSEKLNALQLSDEEMSLFTAVVLVSADRSGIENVNSVEALQETLIRALRTLIMKNHPNEASIFTKLLLKLPDLRSLNNMHSEELLAFKVHP
notes: cloned into pET46; Used ligand-free (apo) or loaded with heme (a small molecule; 1.05 to 2 molar equivalents); the two states are told apart by the assays; also called REV-ERBβ LBD; LBD; source: E. coli BL21(DE3), purified (IMAC, 3C protease cleavage, size exclusion); 15N-labelled in M9 minimal media for NMR; not shown: 6xHis, N-terminal, cleaved

What was measured:
REV-ERBβ LBD = assay: DSSO chemical cross-linking, SDS-PAGE; type: binding, human; conditions: LBD-only samples, 600 μM DSSO, 25°C, 45 min
Experimental: To further support this stoichiometry, we performed chemical cross-linking analysis of apo or heme-bound LBD ± RID using DSSO (disuccinimidyl sulfoxide), a cross-linker that cross-links lysine residues as well as serine, threonine, and tyrosine residues (fig. S9, A and B).
(§1) Apo or heme-bound REV-ERBβ LBD and NCoR RID protein samples were cross-linked in Hepes gel filtration buffer [25 mM Hepes (pH 7.5) at room temperature, 50 mM NaCl, and 0.5 mM TCEP]. Non–cross-linked negative controls were generated using the same procedure without the addition of DSSO (Thermo Fisher Scientific). Samples included 4 μM apo LBD with or without 2 μM RID and 4 μM heme-bound LBD with or without 2 μM RID; complexes were preincubated 1 hour on ice. Reactions were initiated by spiking DSSO in DMSO at a final concentration of 600 μM in 50-μl solutions. The final molar ratio of cross-linker:protein was 100:1. The reactions were incubated at 25°C for 45 min before being quenched by the addition of tris (pH 8.0) to a final concentration of 50 mM. Each cross-link reaction was done in triplicate, and the reaction replicates were pooled after quenching. Samples (10 μl) were loaded for SDS-PAGE analysis with Coomassie staining to confirm the presence of cross-linked protein. […]

REV-ERBβ LBD / NCoR RID = assay: Chemical cross-linking mass spectrometry (XL-MS); type: binding; conditions: LBD:RID complexes ± heme; DSSO; significant at Padj < 0.05
Experimental: as §1, with “protein. The remaining cross-linked and non–cross-linked samples were then acetone-precipitated at −20°C overnight, and the protein was pelleted by centrifugation at 16,000 relative centrifugal force (rcf) for 5 min at 4°C. After decanting, the pellets were dried for 15 min at room temperature before being resuspended in 12.5 μl of resuspension buffer [50 mM ammonium bicarbonate and 8 M urea (pH 8.0)].” for “protein.”

[1] = test system: REV-ERB LBD interaction with NCoR ID motif peptides; assay: fluorescence-based peptide binding assays; conditions: fig. S2A; authors attribute it to heme quenching artifact
[2] = heme fluorescence quenching; conditions: fig. S2C
[3] = test system: REV-ERB LBD interaction with NCoR ID motif peptides; conditions: REV-ERBs; cited from earlier work
Text: The iron-centered porphyrin heme has been identified as the endogenous REV-ERB ligand ([7], [8]). […] Structural data would help establish that heme directly produces a REV-ERB LBD conformation that enhances NCoR binding. However, published biochemical and structural studies contradict cell-based evidence ([7]–[11]).

[4] = target: T1, mouse NCoR receptor interaction domain …; assay: ITC; heme-bound LBD (300 μM, syringe) titrated into RID construct (15 μM, cell), 4 molar equivalents; 25°C; Hepes assay buffer; WT RID fit to A + B ↔ AB; conditions: both partners purified
[5] = target: T1, mouse NCoR receptor interaction domain …; assay: as above; conditions: both partners purified
NCoR ID1 peptide [6] = target: T2, NCoR ID1 peptide; assay: ITC; apo LBD (500 μM, syringe) titrated into ID peptide (50 μM, cell); 25°C; 20 mM Hepes pH 7.4, 50 mM KCl, 0.5 mM EDTA, 5 mM TCEP; A + B ↔ AB model in SEDPHAT; conditions: both partners purified
NCoR ID2 peptide [7] = target: T3, NCoR ID2 peptide; assay: as above; conditions: both partners purified
NCoR ID1 peptide [8] = target: T2, NCoR ID1 peptide; assay: ITC; heme-bound LBD (500 μM with 1.05 molar equivalents of heme, syringe) titrated into ID peptide (50 μM, cell); 25°C; 20 mM Hepes pH 7.4, 50 mM KCl, 0.5 mM EDTA, 5 mM TCEP; A + B ↔ AB model in SEDPHAT; conditions: both partners purified
NCoR ID2 peptide [9] = target: T3, NCoR ID2 peptide; assay: as above; conditions: both partners purified
[10] = target: T1, mouse NCoR receptor interaction domain …; assay: ITC; apo LBD (300 μM, syringe; for WT RID 2 × 20 injections of 150 μM) titrated into RID construct (15 μM, cell); 25°C; Hepes assay buffer; WT RID fit to two nonsymmetric sites, microscopic K model; ΔID2 fit to A + B ↔ AB; conditions: both partners purified
[11] = target: T1, mouse NCoR receptor interaction domain …; assay: as above; conditions: both partners purified
[12] = target: T4, mouse NCoR RID ΔID2 mutant; assay: as above; conditions: both partners purified

Row | Molecule | LBD dimer band by cross-linking SDS-PAGE, effect of heme (REV-ERBβ LBD) | effect of heme on cross-links (REV-ERBβ LBD / NCoR RID) | effect of heme on ID peptide interaction in fluorescence-based assays [1] | heme quenching of fluorophores [2] | displacement of NCoR ID peptides in fluorescence-based biochemical assays [3] | stoichiometry N [4] [LBD per RID] | dH [5] [kJ/mol] | dH (NCoR ID1 peptide [6]) [kJ/mol] | dH (NCoR ID2 peptide [7]) [kJ/mol] | dH (NCoR ID1 peptide [8]) [kJ/mol] | dH (NCoR ID2 peptide [9]) [kJ/mol] | stoichiometry N [10] [LBD per RID] | KD site 1 [11] [µM] | KD site 2 [11] [µM] | dH site 1 [11] [kJ/mol] | dH site 2 [11] [kJ/mol] | dH [12] [kJ/mol]
1 | C=CC1=C(C)c2cc3[n-]c(cc4[n-]c(cc5nc(cc1n2)C(C)=C5C=C)c(C)c4CCC(=O)O)c(CCC(=O)O)c3C.[Fe+2] [heme] | weak dimer band in LBD-only samples that was unchanged by heme | reduced LBD-LBD and LBD-RID cross-links, particularly for residues in the AF-2 surface | dose-dependently reduces REV-ERB LBD interaction with peptides derived from NCoR ID motifs | quenches fluorophores across a broad range of emissions | dose-dependently displace NCoR interaction domain (ID) peptides from the REV-ERBs | – | – | – | – | – | – | – | – | – | – | – | –
2 | B1 | – | – | – | – | – | ~2 | 7.11 | -32.2 | -40.6 | 7.11 | 12.6 | 2 | 0.012 | 0.74 | -34.7 | 13.4 | -39.3
